Experimental data taken from US20240182911A1 (University of California, published 2024).
Where a chain is given by its changes, count along the chain named. Where two headings read alike, the source gives them in different places.

How the values were obtained:
[1] = biological target: T1, receptor-binding domain (RBD) of the SARS-COV-2 spike (S) protein (SARS-COV-2, UniProt P0DTC2 319-541); test: On-yeast EC50
[2] = biological target: T1, receptor-binding domain (RBD) of the …; test: SPR equilibrium
[3] = biological target: T1, receptor-binding domain (RBD) of the …; test: SPR equilibrium; remark: listed apart in the source
[4] = biological target: T1, receptor-binding domain (RBD) of the …; test: SPR kinetic
[5] = biological target: T1, receptor-binding domain (RBD) of the …; test: monovalent affinity, assay not named
[6] = biological target: T1, receptor-binding domain (RBD) of the …; test: SPR kinetic; remark: listed apart in the source
[7] = biological target: T1, receptor-binding domain (RBD) of the …; test: SPR kinetic; remark: listed apart in the source
[8] = biological target: T1, receptor-binding domain (RBD) of the …; test: SPR equilibrium; remark: listed apart in the source
[9] = biological target: T1, receptor-binding domain (RBD) of the …; test: SPR equilibrium; affinity measurement note: Saturation not reached

B1: RBD9 (VHH)
VHH: QVQLQESGGGLVQAGGSLRLSCAASGYIFYSRRMGWYRQAPGKEREFVATIGHGTSTYYADSVKGRFTISRDNAKNTVYLQMNSLKPEDTAVYYCAALPRPHGAGTADARYNLWYWGQGTQVTVSS
Work on B1 yielded an EC50 [1] of 131 nM.

B2: RBD9i10 (VHH)
VHH: B1 VHH with T55A, D61G, N83D
B2 gave an EC50 [1] of 15.2 nM.

B3: RBD11 (VHH)
VHH: QVQLQESGGGLVQAGGSLRLSCAASGNIFAKVWMGWYRQAPGKEREFVASIANGATTYYADSVKGRFTISRDNAKNTVYLQMNSLKPEDTAVYYCAARNWSGLGHFYWGQGTQVTVSS
For B3, the Kd [2] was 2420 nM.

B4: RBD11i12 (VHH)
VHH: B3 VHH with E44G, H105Y, G109S
B4 was tested, and the Kd [2] was 316 nM.

B5: RBD7i12 (VHH)
VHH: QVQLQESGGGLVQAGGSLRLSCAASGYISGAYYMGWYRQAPGKEREFVAGIGGGSTNYADSVKGRFTISRDNAKNTVYLQMNSLKPEDTAVYYCAVYQSVAYYCRGYFSYWGQGTQVTVSS
For B5, the Kd [3] was 2590 nM.

B6: RBD7 (VHH)
VHH: B5 VHH with C104Y
Work on B6 yielded a Kd [3] of 2210 nM.

B7: RBD7i13 (VHH)
VHH: B5 VHH with E46K
For B7, the Kd [3] was 659 nM.

B8: RBD10i10 (VHH)
VHH: QVQLQESGGGLVQAGGSLRLSCAASGTIFQVGSMGWYRQAPGKGRKFVATIADGGSTNYAGSVKGRFTISRDNAKNTVYLQMNSLKPEDTAVYYCAALGQVSEYNSASYEWTYPYWGQGTQVTVSS
In the case of B8, the Kd [4] is reported as 2.14 nM and the kon [4] is reported as 154000 M⁻¹ s⁻¹.

B9: RBD10 (VHH)
VHH: B8 VHH with G44E, K46E, G55S, G61D
In the case of B9, the Kd [4] is reported as 417 nM, the koff [4] is reported as 0.00552 s⁻¹ and the kon [4] is reported as 13200 M⁻¹ s⁻¹.

B10: RBD10i14 (VHH)
VHH: B8 VHH with M34V, G55S
With B10 the Kd [5] was 0.72 nM, the koff [4] was 0.000118 s⁻¹ and the kon [4] was 167000 M⁻¹ s⁻¹.

B11: RBD1i1 (VHH)
VHH: QVQLQESGGGLVQAGGSLRLSCAASGTISYENFMGWYRQAPGKERKLVAGINDGTNTYYADSVKGRFTISRDNAKNTVYLQMNSLKPEDTAVYYCAVIGASVLGHAYWGQGTQVTVSS
B11 showed a Kd [6] of 48.1 nM, a koff [6] of 0.0023 s⁻¹ and a kon [6] of 47700 M⁻¹ s⁻¹.

B12: RBD1 (VHH)
VHH: B11 VHH with K46E, A100T
Binder B12 has a Kd [6] of 1400 nM, a koff [6] of 0.0221 s⁻¹ and a kon [6] of 15800 M⁻¹ s⁻¹.

B13: RBD1i13 (VHH)
VHH: B11 VHH with E44G, K86E
For B13, the Kd [6] was 32.2 nM, the koff [6] was 0.00216 s⁻¹ and the kon [6] was 67200 M⁻¹ s⁻¹.

B14: RBD6i10 (VHH)
VHH: QVQLQESGGGLVQAGGSLRLNCAASGSISTTYLMGWYRQAPGKERKFVATINRGGSTYYAVSVKGRFTISRDNAKNTVYLQMNSLKPEDTAVYYCAVGWPDPDYGLAYHRYWGQGTQVTVNS
Work on B14 yielded a Kd [7] of 597 nM, a koff [7] of 0.00568 s⁻¹ and a kon [7] of 9500 M⁻¹ s⁻¹.

B15: RBD6id (VHH)
VHH: B14 VHH with S25N, K46E, V61I, N121S
Binder B15 has a Kd [7] of 263 nM, a koff [7] of 0.00271 s⁻¹ and a kon [7] of 10300 M⁻¹ s⁻¹.

B16: RBD6 (VHH)
VHH: B14 VHH with N21S, K46E, V61D, N121S
Binder B16 has a Kd [6] of 990 nM, a koff [6] of 0.00892 s⁻¹ and a kon [6] of 9010 M⁻¹ s⁻¹.

B17: RBD6i13 (VHH)
VHH: B14 VHH with D103G
For B17, the Kd [3] was 558 nM.

B18: RBD3i2 (VHH)
VHH: QAQLQESGGGLVQAGGSLRLSCAASGNISDFRFMGWYRQAPGKERELVAAIGRGSNTRYADSVKGRFTISRDNAKNTVYLQMNSLKPEDTAVYYCAARNATYPYYVYWGQGTQVTVSS
B18 gave a Kd [8] of 128 nM.

B19: RBD3i17 (VHH)
VHH: B18 VHH with Y59C
In the case of B19, the Kd [8] is reported as 230 nM.

B20: RBD3 (VHH)
VHH: B18 VHH with A2V, R58Y
Work on B20 yielded a Kd [9] of 6000 nM.

B21: RBD8 (VHH)
VHH: QVQLQESGGGLVQAGGSLRLSCAASGTIFGGPWMGWYRQAPGKEREFVAAIARGGNTNYADSVKGRFTISRDNAKNTVYLQMNSLKPEDTAVYYCAARDAVYPYLKYWGQGTQVTVSS
B21 showed an EC50 [1] of 80.8 nM.

B22: RBD8i1 (VHH)
VHH: B21 VHH with F29S
Work on B22 yielded an EC50 [1] of 35.4 nM.
